Experimental data published in publication PMC2606095 (Chemistry & biology, 2008).
Non-standard residues stand in square brackets, D forms with d. No end group written: not given here. pY = N[C@@H](Cc1ccc(OP(=O)(O)O)cc1)C(=O)O

T1: core domain of Signal Transducer and Activator of Transcription 1 (STAT1) (human)
T1 chain: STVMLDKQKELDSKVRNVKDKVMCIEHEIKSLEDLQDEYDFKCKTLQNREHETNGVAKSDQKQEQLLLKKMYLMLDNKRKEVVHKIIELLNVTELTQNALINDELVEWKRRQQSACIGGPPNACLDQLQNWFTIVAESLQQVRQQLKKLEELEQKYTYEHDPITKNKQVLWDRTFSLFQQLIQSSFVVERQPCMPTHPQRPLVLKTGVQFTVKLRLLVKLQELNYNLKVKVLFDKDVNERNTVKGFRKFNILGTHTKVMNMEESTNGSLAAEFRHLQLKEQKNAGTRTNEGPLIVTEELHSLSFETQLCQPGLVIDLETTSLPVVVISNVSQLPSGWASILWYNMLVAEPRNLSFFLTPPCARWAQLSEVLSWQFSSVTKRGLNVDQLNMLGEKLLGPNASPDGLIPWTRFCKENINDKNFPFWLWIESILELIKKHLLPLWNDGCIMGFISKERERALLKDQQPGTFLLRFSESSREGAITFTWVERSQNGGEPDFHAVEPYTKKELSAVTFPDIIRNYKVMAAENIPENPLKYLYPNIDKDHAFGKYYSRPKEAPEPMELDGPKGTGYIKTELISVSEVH

T2: PTB domain of Shc (human)
T2 sequence (P29353 whole entry, looked up): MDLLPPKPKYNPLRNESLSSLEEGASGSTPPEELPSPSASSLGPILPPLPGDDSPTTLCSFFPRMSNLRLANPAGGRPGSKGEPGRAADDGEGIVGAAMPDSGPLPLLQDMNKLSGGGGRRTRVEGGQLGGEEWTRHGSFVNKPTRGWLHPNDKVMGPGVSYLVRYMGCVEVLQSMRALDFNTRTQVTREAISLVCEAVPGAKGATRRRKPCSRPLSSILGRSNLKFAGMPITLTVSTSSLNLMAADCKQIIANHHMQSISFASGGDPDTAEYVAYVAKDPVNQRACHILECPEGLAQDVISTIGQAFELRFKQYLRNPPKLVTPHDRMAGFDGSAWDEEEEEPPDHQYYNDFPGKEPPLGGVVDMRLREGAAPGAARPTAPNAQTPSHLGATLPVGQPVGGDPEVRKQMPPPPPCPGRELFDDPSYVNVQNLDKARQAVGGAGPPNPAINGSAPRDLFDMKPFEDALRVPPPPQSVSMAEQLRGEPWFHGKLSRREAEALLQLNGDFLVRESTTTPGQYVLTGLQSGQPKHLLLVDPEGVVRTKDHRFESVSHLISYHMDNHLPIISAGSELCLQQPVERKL


What was measured:
[1] = molecular target: T1, core domain of Signal Transducer and …; experiment: peptide or protein array
[2] = molecular target: T2, PTB domain of Shc (human); experiment: peptide or protein array

Kd [1] [nM] | Kd [2] [nM] | Binder
1550 |  | {5(6)‑TAMRA}-QAFNIPPPI[pY]TSRARIDD [ErbB4-1035 phosphopeptide]
 | < 1000 | {5(6)‑TAMRA}-DLQALDNPE[pY]HNASNGPD [ErbB4-1188 phosphopeptide]
2060 |  | {5(6)‑TAMRA}-VQEDSSTQR[pY]SADPTVFD [ErbB4-1128 phosphopeptide]
 | < 1000 | {5(6)‑TAMRA}-AKKAFDNPD[pY]WNHSLPPD [ErbB4-1242 phosphopeptide]
